Ends that are not written are not given here.
B1: VSL12 peptide (peptide)
peptide: VSLARRPLPPLP
modifications: also: biotin (site not given here)
notes: Biotinylated for immobilisation in SPR; source: synthetic peptide (University of Pittsburgh Peptide Synthesis Core)
B2: Lyn SH3 domain (domain or fragment)
chain: EQGDIVVALYPYDGIHPDDLSFKKGEKMKVLEEHGEWWKAKSLLTKKEGFIPSNYVAKLNT

Assays:
c-Src SH3 domain [1] = molecular target: T1, c-Src SH3 domain (human, UniProt P12931-1 81-142); assay: SPR; same runs as a1 (biotinylated VSL12 on a streptavidin chip, 25°C, HBS-EP); equilibrium responses against analyte concentration, steady state model; details: both partners purified
T1 construct: human c-Src, SH3 domain, residues 81-142; Cloned into pET21a through NdeI and XhoI; source: E. coli Rosetta 2(DE3)pLysS, purified (anion exchange, IMAC, SEC)

Fyn-YEEI = Fyn-YEEI (human, phosphotyrosine in the C-terminal tail (pTyr-Glu-Glu-Ile-Pro)); assay: cell-based or functional assay
Lyn-YEEI = Lyn-YEEI (human, phosphotyrosine in the C-terminal tail (pTyr-Glu-Glu-Ile-Pro)); assay: cell-based or functional assay
c-Src SH3 domain [2] = molecular target: T1, c-Src SH3 domain; assay: SPR; Biacore 3000; biotinylated VSL12 immobilised to 80 RU on a streptavidin chip; domain proteins flowed in duplicate at 25°C in HBS-EP (10 mM HEPES pH 7.4, 150 mM NaCl, 3 mM EDTA, 0.05% P20); 180 s association, 300 s dissociation; double referenced; kinetic fit, 1:1 Langmuir model; details: both partners purified
VSL12 peptide [3] = molecular target: B1; assay: SPR; same runs as a1 (biotinylated VSL12 on a streptavidin chip, 25°C, HBS-EP); equilibrium responses against analyte concentration, steady state model; details: both partners purified
VSL12 peptide [4] = molecular target: B1; assay: SPR; Biacore 3000; biotinylated VSL12 immobilised to 80 RU on a streptavidin chip; domain proteins flowed in duplicate at 25°C in HBS-EP (10 mM HEPES pH 7.4, 150 mM NaCl, 3 mM EDTA, 0.05% P20); 180 s association, 300 s dissociation; double referenced; kinetic fit, 1:1 Langmuir model; details: both partners purified

Row | Kd (c-Src SH3 domain [1]) | Kact: VSL12 concentration at half-maximal activation of kinase activity (ADP Quest kinetic kinase assay, VSL12 0.1 to 300 µM, basal rate subtracted) (Fyn-YEEI) | Kact: VSL12 concentration at half-maximal activation of kinase activity (ADP Quest kinetic kinase assay, VSL12 0.1 to 300 µM, basal rate subtracted) (Lyn-YEEI) | Kd (c-Src SH3 domain [2]) | Kd (VSL12 peptide [3]) | Kd (VSL12 peptide [4]) | koff (VSL12 peptide [4]) | kon (VSL12 peptide [4]) | Binder
1 | 4000 nM | 24.9 µM | 4.03 µM | 3420 nM | – | – | – | – | B1
2 | – | – | – | – | 562 nM | 647 nM | 0.137 s⁻¹ | 212000 M⁻¹ s⁻¹ | B2

Reference: publication PMC4140816 (PLoS ONE, 2014)
